The text below walks through data of publication PMC3302164.

This assay deals with HA-PP1β, expressed in HEK 293 cells (human) (UniProt P62140). Put plainly: co-IP.
Sequence of HA-PP1β, expressed in HEK 293 cells (human) (P62140 whole entry): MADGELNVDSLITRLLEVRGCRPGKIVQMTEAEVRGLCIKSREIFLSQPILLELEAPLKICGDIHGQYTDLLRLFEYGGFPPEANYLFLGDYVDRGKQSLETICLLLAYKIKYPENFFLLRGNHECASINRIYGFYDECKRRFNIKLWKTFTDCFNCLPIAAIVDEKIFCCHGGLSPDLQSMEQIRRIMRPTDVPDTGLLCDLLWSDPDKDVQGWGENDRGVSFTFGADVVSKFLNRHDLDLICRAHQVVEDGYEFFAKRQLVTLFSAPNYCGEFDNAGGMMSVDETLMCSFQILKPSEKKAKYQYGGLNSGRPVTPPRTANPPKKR

Take “FLAG-KAP1 (wild type), expressed in HEK 293 cells (from UniProt Q13263 1-835) (natural protein)”: the extent of interaction relative to that with PP1α, after doxorubicin was found to be 30%.
